Test results: patent US11789012B2, “Cell death biomarker” (UCL Business PLC, priority 2016, dated 2023)

How the values were obtained:
BB65RCC = assay: rTRAIL viability, renal cell line BB65RCC; type: cell-based; conditions: BAP1 wild-type
Excerpt: FIG. 8A is a graph showing the effect of rTRAIL on the viability of various cancer cell lines. Bladder (RT4) and Breast (HCC1187) cancer cell lines with nonsense mutations in BAP1 show sensitivity to rTRAIL while renal cell cancer cell lines (769P & RCC10RGB) with missense mutation and wild-type renal (BB65RCC) and bladder cancer (SW1710) cell lines are resistant to TRAIL.

NCI-H2452 = assay: rTRAIL response, viability assay, NCI-H2452; type: cell-based, Human; conditions: BAP1 Substitution - Missense, homozygous
Protocol: (§1) Manual “single dose” combination screening was undertaken using 96 well formats. Cells were plated on day 1 in previously optimized seeding densities in 180 μl if media. On day 2 20 μl of a 10× concentration of […] was added. Cells were then allowed to grow for 72 hrs or 6 days and fixed at the end of the assay. Drug wells were compared to DMSO treated control wells.
(§2) Single agent high throughput 5 point viability screening was undertaken in 384 well formats using robotic liquid handling with fixing with 4% paraformaldehyde and staining for viability with Syto60 nucleic acid dye (Invitrogen) (see below). Single agent dose response curves were derived for each library of 85-95 drugs according to the experiment used, and log IC50 or area under the curve (AUC) metrics were derived for each library compound in each cell line according to a previously derived formula [18].
(§3) Adherent cell lines were seeded 24 hours before drugging. Cells were trypsinised and counted before seeding at the optimal density for the size of well (96 or 384) and duration of assay. 72 hr after drug treatment cells were fixed with 4% paraformaldehyde for 30 minutes. […] Quantification of fluorescent signal was achieved using excitation/emission wavelength of 630/695 […].

H2818 = assay: Cell death response to rTRAIL after BAP1 shRNA knockdown in H2818; type: cell-based, Human; conditions: H2818 BAP1 wild-type line
Protocol: Adherent mesothelioma cell lines were plated in a 96 well plate at approximately 10000 cells per well. Cells were plated and given 1 day to adhere at which time drug was added. After 48 hrs media, including floating cells, was collected from each well. The remaining adherent cells were washed with PBS and mobilised with 0.05% trypsin in EDTA. All cells were collected into tubes containing the previously removed media and pelleted by centrifugation (300 g, 5 minutes). Cells were then re-suspended in 1× Annexin V binding buffer with 10 μl/1 ml concentration of Annexin V-647 antibody (Invitrogen) and incubated for 15 minutes at room temperature. DAPI ([…]) was then added to each sample before flow cytometry analysis as below. Annexin V−/DAPI− cells were judged to be viable, AnnexinV+/DAPI− cells were considered to be undergoing apoptosis (early apoptotic phase), and Annexin V+/DAPI+ cells were considered late apoptotic or necrotic, and recorded as dead.
Lentivirus encoding shRNA targeting BAP1 was generated as per the lentivirus production protocol above. MPM cells (H2818) were transduced and treated with puromycin […] until a pure population was achieved. Immunoblotting was performed to assess efficacy of the shRNA knockdown.

H226 = assay: rTRAIL response, viability assay, H226; type: cell-based, Human; conditions: BAP1 Deletion, Homozygous
Protocol: as §1, §2, §3

NCI-H226 = assay: rTRAIL response, viability assay, NCI-H226; type: cell-based, Human; conditions: BAP1 HomDel, homozygous
Protocol: as §1, §2, §3

B1: rTRAIL: recombinant protein that activates the TRAIL pathway by binding to TRAIL-R1 (DR 4) and TRAIL-R2 (DR 5) (protein, UniProt P50591 1-281, looked up)
Tumor necrosis factor ligand …: MAMMEVQGGPSLGQTCVLIVIFTVLLQSLCVAVTYVYFTNELKQMQDKYSKSGIACFLKEDDSYWDPNDEESMNSPCWQVKWQLRQLVRKMILRTSEETISTVQEKQQNISPLVRERGPQRVAAHITGTRGRSNTLSSPNSKNEKALGRKINSWESSRSGHSFLSNLHLRNGELVIHEKGFYYIYSQTYFRFQEEIKENTKNDKQMVQYIYKYTSYPDPILLMKSARNSCWSKDAEYGLYSIYQGGIFELKENDRIFVSVTNEHLIDMDHEASFFGAFLVG
- response to TRAIL (viability) (BB65RCC): resistant
- rTRAIL response (NCI-H2452): Resistant
- TRAIL sensitivity after ablation of BAP1 with lentiviral shRNA vs parental line (H2818): shift towards increased sensitivity
- rTRAIL response (H226): Sensitive
- rTRAIL response (NCI-H226): Sensitive**
